Experiment [1] has as its target T1, human GLP-1 receptor (Homo sapiens, UniProt P43220).
T1 construct: expressed in transfected cells; host or cells: HEK-293 Aurora CRE-BLAM cells
The experiment is described as follows: In vitro potency assay (CRE-BLAM reporter, GLP-1 receptor signaling). As to conditions: in vitro potency relative to Val^8-GLP-1(7-37)OH. It is filed as cell-based. The source says: The extent of the induction of cAMP levels can then be measured using a cAMP response element which drives the expression of a reporter gene such as luciferase or beta lactamase.
These HEK-293 cells have stably integrated a DNA vector having a cAMP response element (CRE) driving expression of the β-lactamase (BLAM) gene.
The day after seeding, the medium is replaced with plasma free medium.

The target in experiment [2] is T2, human GLP-1 receptor (human), P43220.
T2 chain: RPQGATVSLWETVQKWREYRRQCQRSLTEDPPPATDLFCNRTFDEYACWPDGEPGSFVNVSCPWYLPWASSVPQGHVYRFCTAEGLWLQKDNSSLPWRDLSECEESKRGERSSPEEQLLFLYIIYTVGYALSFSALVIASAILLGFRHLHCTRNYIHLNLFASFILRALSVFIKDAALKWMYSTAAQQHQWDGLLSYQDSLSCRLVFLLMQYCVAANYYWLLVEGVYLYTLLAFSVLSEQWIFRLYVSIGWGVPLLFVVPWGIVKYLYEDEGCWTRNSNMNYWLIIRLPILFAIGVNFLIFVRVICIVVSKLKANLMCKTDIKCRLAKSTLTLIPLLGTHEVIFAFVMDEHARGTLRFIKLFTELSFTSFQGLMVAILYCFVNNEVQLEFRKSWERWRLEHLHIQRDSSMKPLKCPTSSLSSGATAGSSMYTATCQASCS
Nature of the experiment: cell-based or functional assay.

Experiment [3] deals with human GLP-1 receptor (human, UniProt P43220 24-463). The experiment is described as follows: cell-based or functional assay.

From patent publication US20050164925A1 (JOSEPH ANTHONY JAKUBOWSKI AND THURMAN DWIGHT MC KINNEY, published 2005) come the findings set out here.

Several values for one entry are separate records, joined by “and”; a condition that tells them apart may be missing. Equal values may be shown once. Where no end group is shown, it is not given here.

Val^8-Glu^22-GLP-1(7-37)OH: at human GLP-1 receptor [1], the “potency higher than Val^8-GLP-1(7-37)OH” value is “approximately 3 fold”. Consider Exendin-4, for which, in the experiment with human GLP-1 receptor [1], the “potency higher than Val^8-GLP-1(7-37)OH” value is given as “approximately 5 fold”. Consider HVEGTFTSDYSSYLEGQAAKEFIAWLVKGRG-OH [Val^8-Tyr^16-GLP-1(7-37)OH], for which the EC50 Relative to Val^8-GLP-1(7-37)OH (relative to Val^8-GLP-1(7-37)OH) in experiment [2] turned out to be 2.5. In experiment [2], HVEGTFTSDWSSYLEEQAAKEFIAWLIKGRG-OH [Val^8-Trp^16-Glu^22-Ile^33-GLP-1(7-37)OH] gave an EC50 Relative to Val^8-GLP-1(7-37)OH (relative to Val^8-GLP-1(7-37)OH) of 4.1. For the molecule HVEGTWTSDVSSYLEEQAAKEFIAWLVKGRG-OH [Val^8-Trp^12-Glu^22-GLP-1(7-37)OH], the EC50 Relative to Val^8-GLP-1(7-37)OH (relative to Val^8-GLP-1(7-37)OH) in experiment [2] is 1.7. HVEGTFTSDWSSYLEEQAAKEFIAWLVKGRG-OH [Val^8-Trp^16-Glu^22-GLP-1(7-37)OH]: the EC50 Relative to Val^8-GLP-1(7-37)OH (relative to Val^8-GLP-1(7-37)OH) in experiment [2] is 4.9 and 4.6. Turning to HVEGTYTSDVSSYLEGQAAKEFIAWLVKGX (C-terminal amide (Xaa at position 37 is -NH2)) [Val^8-Tyr^12-GLP-1(7-36)NH2], the “EC50 Relative to Val^8-GLP-1(7-37)OH” value in the experiment with human GLP-1 receptor [3] was 1.1 relative to Val^8-GLP-1(7-37)OH. In experiment [2], HVEGTFTSDFSSYLEEQAAKEFIAWLVKGRG-OH [Val^8-Phe^16-Glu^22-GLP-1(7-37)OH] returned an EC50 Relative to Val^8-GLP-1(7-37)OH (relative to Val^8-GLP-1(7-37)OH) of 2.3. Still for that read-out and setting: then HVEGTFTSDVSSYLEEQAAKEFIAWLIKGRG-OH [Val^8-Glu^22-Ile^33-GLP-1(7-37)OH], with 4.7 and 3.8 and 3.4; and HVEGTYTSDVSSYLEEQAAKEFIAWLVKGRG-OH [Val^8-Tyr^12-Glu^22-GLP-1(7-37)OH], with 2.7.

For HVEGTFTSDLSSYLEGQAAKEFIAWLVKGRG-OH [Val^8-Leu^16-GLP-1(7-37)OH], the EC50 Relative to Val^8-GLP-1(7-37)OH (relative to Val^8-GLP-1(7-37)OH) in experiment [2] worked out at 1.1.

For the molecule HVEGTFTSDVSSYFEEQAAKEFIAWLVKGRG-OH [Val^8-Phe^20-Glu^22-GLP-1(7-37)OH], the EC50 Relative to Val^8-GLP-1(7-37)OH (relative to Val^8-GLP-1(7-37)OH) in experiment [2] came to 2.7. HVEGTFTSDVSSYLEGQALKEFIAWLVKGRG-OH [Val^8-Leu^25-GLP-1(7-37)OH]: in experiment [2], the EC50 Relative to Val^8-GLP-1(7-37)OH (relative to Val^8-GLP-1(7-37)OH) amounted to 0.5. For HVEGTFTSDVSIYLEEQAAKEFIAWLVKGRG-OH [Val^8-Ile^18-Glu^22-GLP-1(7-37)OH], the EC50 Relative to Val^8-GLP-1(7-37)OH (relative to Val^8-GLP-1(7-37)OH) in experiment [2] turned out to be 4.

For the molecule HVEGTFTSDVSWYLEEQAAKEFIAWLVKGRG-OH [Val^8-Trp^18-Glu^22-GLP-1(7-37)OH], the EC50 Relative to Val^8-GLP-1(7-37)OH (relative to Val^8-GLP-1(7-37)OH) in experiment [2] was 3.2 and 6.6. HVEGTFTSDVSSFLEEQAAKEFIAWLVKGRG-OH [Val^8-Phe^19-Glu^22-GLP-1(7-37)OH] returned an EC50 Relative to Val^8-GLP-1(7-37)OH (relative to Val^8-GLP-1(7-37)OH) in experiment [2] of 1.5.

With HVEGTFTSDVSSYLEEQALKEFIAWLVKGRG-OH [Val^8-Glu^22-Leu^25-GLP-1(7-37)OH], in experiment [2], the EC50 Relative to Val^8-GLP-1(7-37)OH (relative to Val^8-GLP-1(7-37)OH) was found to be 2.8.

For HVEGTYTSDYSSYLEGQAAKEFIAWLVKGRG-OH [Val^8-Tyr^12-Tyr^16-GLP-1(7-37)OH], in experiment [2], the EC50 Relative to Val^8-GLP-1(7-37)OH (relative to Val^8-GLP-1(7-37)OH) worked out at 1.5. As for HVEGTFTSDVSSYLEGQAAKEFIEWLVKGRG-OH [Val^8-Glu^30-GLP-1(7-37)OH], the EC50 Relative to Val^8-GLP-1(7-37)OH (relative to Val^8-GLP-1(7-37)OH) in experiment [2] came to 0.7. For HVEGTFTSDYSSFLEGQAAKEFIAWLVKGRG-OH [Val^8-Tyr^16-Phe^19-GLP-1(7-37)OH], the EC50 Relative to Val^8-GLP-1(7-37)OH (relative to Val^8-GLP-1(7-37)OH) in experiment [2] amounted to 2.8. As to HVEGTFTSDVSSYLEEQAAKEFIAWLVKGRH-OH [Val^8-Glu^22-His^37-GLP-1(7-37)OH], in experiment [2], the EC50 Relative to Val^8-GLP-1(7-37)OH (relative to Val^8-GLP-1(7-37)OH) was found to be 4.7. HVEGTFTSDYSSWLEEQAAKEFIAWLVKGRG-OH [Val^8-Tyr^16-Trp^19-Glu^22-GLP-1(7-37)OH] registered an EC50 Relative to Val^8-GLP-1(7-37)OH (relative to Val^8-GLP-1(7-37)OH) in experiment [2] of 3.5. As to HVEGTFTSDVSSYLEEQAAKAFIAWLVKGRG-OH [Val^8-Glu^22-Ala^27-GLP-1(7-37)OH], the EC50 Relative to Val^8-GLP-1(7-37)OH (relative to Val^8-GLP-1(7-37)OH) in experiment [2] stood at 2.2.

Take HVEGTFTSDVSSYLEEQAVKEFIAWLVKGRG-OH [Val^8-Glu^22-Val^25-GLP-1(7-37)OH]: the EC50 Relative to Val^8-GLP-1(7-37)OH (relative to Val^8-GLP-1(7-37)OH) in experiment [2] was 4.7 and 2.9. As to HVEGTFTSDLSSYLEEQAAKEFIAWLVKGRG-OH [Val^8-Leu^16-Glu^22-GLP-1(7-37)OH], the EC50 Relative to Val^8-GLP-1(7-37)OH (relative to Val^8-GLP-1(7-37)OH) in experiment [2] worked out at 4.3. In the case of HVEGTFTSDVSYYLEEQAAKEFIAWLVKGRG-OH [Val^8-Tyr^18-Glu^22-GLP-1(7-37)OH], in experiment [2], the EC50 Relative to Val^8-GLP-1(7-37)OH (relative to Val^8-GLP-1(7-37)OH) is 5.1 and 5.9. On to HVDGIFTSDYSSYLEEQAAKEFIAWLVKGRG-OH [Val^8-Asp^9-Ile^11-Tyr^16-Glu^22-GLP-1(7-37)OH], for which the EC50 Relative to Val^8-GLP-1(7-37)OH (relative to Val^8-GLP-1(7-37)OH) in experiment [2] turned out to be 4.3. Take HVEGTFTSDVSSYLEEQAVKEFIAWLIKGRG-OH [Val^8-Glu^22-Val^25-Ile^33-GLP-1(7-37)OH]: the EC50 Relative to Val^8-GLP-1(7-37)OH (relative to Val^8-GLP-1(7-37)OH) in experiment [2] was 4.9 and 5.8 and 6.7. HVEGTFTSDWSSYLEEQAVKEFIAWLIKGRG-OH [Val^8-Trp^16-Glu^22-Val^25-Ile^33-GLP-1(7-37)OH] came in with an EC50 Relative to Val^8-GLP-1(7-37)OH (relative to Val^8-GLP-1(7-37)OH) in experiment [2] of 5. HVEGTFTSDVSSWLEEQAAKEFIAWLVKGRG-OH [Val^8-Trp^19-Glu^22-GLP-1(7-37)OH]: the EC50 Relative to Val^8-GLP-1(7-37)OH (relative to Val^8-GLP-1(7-37)OH) in experiment [2] came to 3.2. For the molecule HVEGTFTSDISSYLEEQAAKEFIAWLVKGRG-OH [Val^8-Ile^16-Glu^22-GLP-1(7-37)OH], the EC50 Relative to Val^8-GLP-1(7-37)OH (relative to Val^8-GLP-1(7-37)OH) in experiment [2] is 3.3. Molecule HVEGTFTSDVSKYLEEQAAKEFIAWLVKGRG-OH [Val^8-Lys^18-Glu^22-GLP-1(7-37)OH] gave an EC50 Relative to Val^8-GLP-1(7-37)OH (relative to Val^8-GLP-1(7-37)OH) in experiment [2] of 2.5. Regarding HVEGTFTSDYSSYLEEQAAKEFIAWLVKGRG-OH [Val^8-Tyr^16-Glu^22-GLP-1(7-37)OH], the EC50 Relative to Val^8-GLP-1(7-37)OH (relative to Val^8-GLP-1(7-37)OH) in experiment [2] was 3.6 and 3.8. With HVEGTFTSDWSSYLEEQAVKEFIAWLVKGRG-OH [Val^8-Trp^16-Glu^22-Val^25-GLP-1(7-37)OH], the EC50 Relative to Val^8-GLP-1(7-37)OH (relative to Val^8-GLP-1(7-37)OH) in experiment [2] turned out to be 4.4.
